In paper PMC9595563:

Target: the RBD of spike (depending on domain and variant)
Test: ELISA

Sequence of LRRC15-Fc (Q8TF66 22-538): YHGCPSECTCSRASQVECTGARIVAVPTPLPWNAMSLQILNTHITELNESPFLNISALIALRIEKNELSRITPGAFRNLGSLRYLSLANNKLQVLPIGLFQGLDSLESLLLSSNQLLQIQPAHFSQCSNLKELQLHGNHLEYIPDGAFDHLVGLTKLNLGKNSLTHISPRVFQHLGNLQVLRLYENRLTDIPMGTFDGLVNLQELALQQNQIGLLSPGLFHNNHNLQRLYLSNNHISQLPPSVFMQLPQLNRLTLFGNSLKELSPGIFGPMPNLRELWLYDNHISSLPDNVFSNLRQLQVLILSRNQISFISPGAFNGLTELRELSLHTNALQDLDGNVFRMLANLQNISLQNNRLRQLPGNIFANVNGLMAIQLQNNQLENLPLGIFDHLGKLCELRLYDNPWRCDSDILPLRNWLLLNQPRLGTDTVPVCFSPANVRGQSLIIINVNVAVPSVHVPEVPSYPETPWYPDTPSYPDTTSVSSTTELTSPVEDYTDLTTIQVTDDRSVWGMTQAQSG

Substance “LRRC15-Fc (from UniProt Q8TF66) (Fc fusion)” has a Kd of 43 to 148 nM.
